In the RNAGym collection of RNA variant scans (doi:10.1073/pnas.2313332121):
Fewer inactive variants are shown than the library holds.

B1: TPR 5TU (parent)
chain: GGAUCUUCUCGAUCUAACAAAAAAGACAAAUCUGCCACAAAGCUUGAGAGCAUCUUCGGAUGCAGAGGCGGCAGCCUUCGGUGGCGCGAUAGCGCCAACGUUCUCAACUAUGACACGCAAAACGCGUGCUCCGUUGAAUGGAGUUUAUCAUG

Variants of: B1
Experiment: polymerase ribozyme fitness, log enrichment relative to wild type (log ratio); higher = more active; in vitro selection for triplet polymerase activity
Method in brief: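 Fitness measures genotype enrichment against wild-type enrichment on a logarithmic scale, with inverse-variance-weighted averaging of replicates. The logarithm is base 2, and genotypes were kept only with ≥10 input reads and ≥1 read per output in Illumina sequencing. The sequenced libraries came from one triplicate in vitro selection round, including frozen incubation at −7 °C, of PCR-built, transcribed mutant libraries of each subunit of a heterodimeric triplet polymerase ribozyme.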

Polymerase ribozyme fitness (log ratio), -4.04:
C27U G84A G88A

Polymerase ribozyme fitness (log ratio), -1.66:
A26U U55A

Polymerase ribozyme fitness (log ratio), -3.94:
A26U C85U C96U G143U

Polymerase ribozyme fitness (log ratio), -3.43:
C27U U53A G70U

Polymerase ribozyme fitness (log ratio), -4.18:
A26G C93A G124A

Polymerase ribozyme fitness (log ratio), -1.09:
A26U C116U

Polymerase ribozyme fitness (log ratio), -0.938:
C27U U101C

Polymerase ribozyme fitness (log ratio), -4.2:
C27A U44A U45A C93G

Polymerase ribozyme fitness (log ratio), -2.28:
C27U A47U U53A

Polymerase ribozyme fitness (log ratio), -1.36:
A26U U55G

Polymerase ribozyme fitness (log ratio), -1.92:
A26U U146G

Polymerase ribozyme fitness (log ratio), -3.35:
A26U U55G U56A C87U C96U

Polymerase ribozyme fitness (log ratio), -1.57:
C27U U101G G136A

Polymerase ribozyme fitness (log ratio), -2.85:
C27U A60G C93A C125G G136A

Polymerase ribozyme fitness (log ratio), -3.9:
A29U A40C U56A G88A A121U G126A G136A

Polymerase ribozyme fitness (log ratio), ≤ -4.2:
A26U C27A A29U G34A U61A C76G
A28U A60C A91G A98U
C27G U61A C93U C95U A97U G133U
A28U C35U C87G C103U A121G A122G
C27U A52C C85G C116G G128U A137G
A28U G58A G88C G133A A138G G143U
A28U G84A C125U G126A G152U
A29G C57G G136U
A28G A49G C54U C85A U144G
A28C A66G U148A
A26U G42C G50U C93A A115U G117C
C27A C43A A60U C87A G143U
A28G A47U A49C C85A G136C U146G
A28U G59C C93U A138G
C27G U44G A89C A142U
A28C G67U U144C U151C
C27A A107G
A28U G92C A113U
A28U C32G C87U C99G
C27G C43A C72U C93A C125G G133U G143A
A28G G42U G88A C93U C118A
A28C G42A A113U C116U
A26U U45A A47C U61G C79G G80U A122G C129G
C27U G50U C95U C114U C118G A138U
A28C A40G G59U C87G A110G G143U G152C
C27A A41U C116U G136C U144A
C27G G58U C76A G86A U90C A106U C125U G136C
A26G C85G G88C C125U G136A
A26U A30C A49G G92C
A29C U55A U77G U101G U146A U148G
A28U G48C C85A A97U A122G G143A U146C
A26G C35U A37U C76A U78A
A26U G88U C118G G143C
A29G C85A C114A A121G U134C
A26U G34U G88C C105U U130A
C27A C43A A66U C93G G140U G141A U146G
A28U C38A C63U G83A C103A
A29G U53A A110G A120U C123G
A28G U55A G58C A122G
A28U A41G G42C G94C
A28G G92U C93A
C27U A41C A73G C75U C93A
A28G U55A G67U A89C C129A G140C
A29C U33A A41C U45A A91G
C27A U56G A60U G86U A97G U111G C132A U135G
A26U C51U A89G C105G U134G U144A
C27G U33C U55A A97C A121G
A26G C32A C35A G59U U90C C93G U146G
A26U A107G G141A
A29C C35A U53A C57U G92A C118U A122G G136A C149U
A29C G46U U127G
C27A C87A C93A G143C U144G
C27U C32U A40U A49C C54U C87U A89U A98U
A26U C54G U148A
A28U U82G A137C
C27G C57G U61A A106C
A26G A41G A60U U90G C99A G143U U151C
A26U C51A A60U G88U C95U C118U G141C
A28G A37C A41C C69A C85U G133C
A28G U61G C75A C93U U104G U135A
A28U G133U A137C
A28U A49C U56A C95A C96U C108U G128U
A29U A37C U55G U135C
A28U A110C
A28C U31A A91G U104C

Polymerase ribozyme fitness (log ratio), -3.63:
A29G U53A
C27U G46A C54U C85G

Polymerase ribozyme fitness (log ratio), -4.11:
C27G A39G A89C G92A U127A
